Measurements as given in US20240368617A1, “NPR1 VARIANT TO ENHANCE PLANT RESISTANCE TO BIOTIC AND ABIOTIC STRESSES AND METHOD THEREOF” (Duke University, published 2024).

How the values were obtained:
Test in all cases: EMSA
TGA3 (Asn87-Thr384) = target: T1, TGA3 (Asn87-Thr384) (Arabidopsis thaliana, UniProt Q39234 Q39234:87-384); settings: tags: His10-MBP (PreScission site) N-terminal, C-terminal tandem Flag-HA; AT1G22070; E. coli; label: 6-FAM
T1 sequence: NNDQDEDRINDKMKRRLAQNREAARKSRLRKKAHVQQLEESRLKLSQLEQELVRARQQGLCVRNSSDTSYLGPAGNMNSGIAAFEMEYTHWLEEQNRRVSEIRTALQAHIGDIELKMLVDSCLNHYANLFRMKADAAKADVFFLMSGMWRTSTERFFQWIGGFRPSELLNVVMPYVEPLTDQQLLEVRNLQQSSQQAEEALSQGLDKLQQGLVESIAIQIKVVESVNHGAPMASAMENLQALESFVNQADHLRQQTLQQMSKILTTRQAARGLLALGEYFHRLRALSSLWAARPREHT
Method: (§1) The npr1(dim) mutant (L49D/F53D/V56D/V83K) was cloned into the pTrcHis vector (Thermo Fisher Scientific) as a His10-MBP fusion protein containing a PreScission protease site following MBP and a C-terminal Strep tag, and was expressed and purified similarly to the WT NPR 1 protein. Purified TGA3 (Asn87-Thr384) at a concentration of 0.6 μM and WT NPR1 or the npr1(dim) mutant at a concentration of 8 μM were used in the EMSA with the 6-fluorescein (6-FAM)-labelled oligonucleotide probes (200 nM) containing the LS5 and LS7 as-I cis-elements of the SA-responsive PRI gene promoter (LS5/LS7, 6-FAM-C-ggg[…]ggg) or DNA sequences with the two as-1 regions replaced with adenosines (LS5/LS7, 6-FAM-C-ggg[…]ggg), with the LS7 as-1 element replaced with adenosines (LS5/LS7, 6-FAM-C-ggg[…]-GAggg) or with the LS5 as-1 element replaced with adenosines (LS5/LS7, 6-FAM-C-ggg[…]ggg) as well as their complementary oligonucleotides (Integrated DNA Technologies). The uppercase bases indicate the LS5/LS7 sequence; the lowercase bases indicate overhangs outside the LS5/LS7 sequence; and bases replaced with adenosines are indicated with A's in the small capital font. Pairs of complementary DNA strands were annealed before the binding reaction. For each binding reaction, the desired protein combination was mixed with the target DNA probe together with 30 ng/μL of poly (dI-dC) (non-specific competitor, Thermo Fisher Scientific) in a binding buffer containing 20 mM HEPES (pH 8.0), 300 mM NaCl, 10% glycerol, 1 mM DTT and 0.2 mM SA. […] After electrophoresis, the gel was scanned with the Typhoon FLA 7000 imager (GE Healthcare).

NPR1 = NPR1 (Arabidopsis thaliana, UniProt P93002 SEQ:1-593); settings: tags: His10-MBP (PreScission site) N-terminal, C-terminal Strep tag; E. coli; chain copies: 2 (stated); label: 6-FAM
Method: as §1

[1] = target: TGA3 (Asn87-Thr384) + NPR1 complex (Arabidopsis thaliana, UniProt Q39234;P93002 Q39234:87-384,P93002:1-593); settings: tags: TGA3-Flag-HA; NPR1-Strep; chain copies: TGA3 dimer x2 + NPR1 dimer (stated); label: 6-FAM
Method: as §1

B1: PR1 promoter LS5/LS7 (dsDNA)
DNA 1: GGGCTATGACGTAAGTAAAATAGTGACGTAGAGAGGG
DNA 2: CCCTCTCTACGTCACTATTTTACTTACGTCATAGCCC
B1: binds (TGA3 (Asn87-Thr384)); no binding (NPR1); binds [1].
